Earlier results on one substance are cited in PMC7761212.

In the series the target is rice hemoglobin (Oryza sativa) (UniProt O04986).

Chain of rice hemoglobin (O04986 whole entry): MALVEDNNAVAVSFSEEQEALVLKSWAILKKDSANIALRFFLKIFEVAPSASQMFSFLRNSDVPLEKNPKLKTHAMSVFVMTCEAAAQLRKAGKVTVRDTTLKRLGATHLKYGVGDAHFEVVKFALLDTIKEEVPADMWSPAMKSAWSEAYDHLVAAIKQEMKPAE

As usually defined, the Kd is the constant that tells how readily two partners part at equilibrium. As to rice hemoglobin (from UniProt O04986), the Kd is 80 µM.
